US20200297818A1 (ZEALAND PHARMA A S, published 2020)

T1: human GLP-2 receptor (hGLP2-R) (human, UniProt O95838 1-553)
T1 sequence (looked up): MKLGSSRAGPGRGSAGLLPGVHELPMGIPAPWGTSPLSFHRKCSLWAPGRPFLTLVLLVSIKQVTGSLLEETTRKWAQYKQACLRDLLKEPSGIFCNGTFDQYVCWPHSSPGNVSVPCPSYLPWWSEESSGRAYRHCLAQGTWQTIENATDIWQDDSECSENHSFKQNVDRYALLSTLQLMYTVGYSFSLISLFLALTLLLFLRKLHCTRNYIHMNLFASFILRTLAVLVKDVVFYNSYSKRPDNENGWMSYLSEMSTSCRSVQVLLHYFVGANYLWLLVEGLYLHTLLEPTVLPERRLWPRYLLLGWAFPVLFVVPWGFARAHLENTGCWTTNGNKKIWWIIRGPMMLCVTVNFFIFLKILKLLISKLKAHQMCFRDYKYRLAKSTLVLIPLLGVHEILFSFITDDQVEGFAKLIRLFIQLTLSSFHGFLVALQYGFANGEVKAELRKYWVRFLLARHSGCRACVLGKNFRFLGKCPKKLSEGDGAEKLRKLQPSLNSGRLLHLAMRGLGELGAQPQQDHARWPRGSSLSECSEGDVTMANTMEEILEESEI


Tests used:
[1] = molecular target: T1, human GLP-2 receptor (hGLP2-R); assay: cell-based or functional assay
[2] = molecular target: human glucagon-like peptide 1 receptor (GLP-1 R) (human, UniProt P43220 24-463); assay: cell-based or functional assay

Binder	EC50 GLP-2 (nM); cAMP response [1] [nM]	EC50 GLP-1 (nM); cAMP response [2] [nM]
HXEGTFSSELATILDXLAARDFIAWLIAHKITD (HELM PEPTIDE1{H.[Aib].E.G.T.F.S.S.E.L.A.T.I.L.D.K.L.A.A.R.D.F.I.A.W.L.I.A.H.K.I.T.D}|PEPTIDE2{[O=C(O)CCCCCCCCCCCCCCCCC(=O)[*:2]].[gGlu]}$PEPTIDE1,PEPTIDE2,16:R3-2:R2$$$V2.0; SMILES CC[C@H](C)[C@H](NC(=O)[C@H](CC(C)C)NC(=O)[C@H](Cc1c[nH]c2ccccc12)NC(=O)[C@H](C)NC(=O)[C@@H](NC(=O)[C@H](Cc1ccccc1)NC(=O)[C@H](CC(=O)O)NC(=O)[C@H](CCCNC(=N)N)NC(=O)[C@H](C)NC(=O)[C@H](C)NC(=O)[C@H](CC(C)C)NC(=O)[C@H](CCCCNC(=O)CC[C@H](NC(=O)CCCCCCCCCCCCCCCCC(=O)O)C(=O)O)NC(=O)[C@H](CC(=O)O)NC(=O)[C@H](CC(C)C)NC(=O)[C@@H](NC(=O)[C@@H](NC(=O)[C@H](C)NC(=O)[C@H](CC(C)C)NC(=O)[C@H](CCC(=O)O)NC(=O)[C@H](CO)NC(=O)[C@H](CO)NC(=O)[C@H](Cc1ccccc1)NC(=O)[C@@H](NC(=O)CNC(=O)[C@H](CCC(=O)O)NC(=O)C(C)(C)NC(=O)[C@@H](N)Cc1c[nH]cn1)[C@@H](C)O)[C@@H](C)O)[C@@H](C)CC)[C@@H](C)CC)C(=O)N[C@@H](C)C(=O)N[C@@H](Cc1c[nH]cn1)C(=O)N[C@@H](CCCCN)C(=O)N[C@H](C(=O)N[C@H](C(=O)N[C@@H](CC(=O)O)C(=O)O)[C@@H](C)O)[C@@H](C)CC) [Compound 13]	0.099	2.2
HXEGTFTSELATILDXLAARDFIAWLIAHKITD (HELM PEPTIDE1{H.[Aib].E.G.T.F.T.S.E.L.A.T.I.L.D.K.L.A.A.R.D.F.I.A.W.L.I.A.H.K.I.T.D}|PEPTIDE2{[O=C(O)CCCCCCCCCCCCCCCCC(=O)[*:2]].[gGlu]}$PEPTIDE1,PEPTIDE2,16:R3-2:R2$$$V2.0; SMILES CC[C@H](C)[C@H](NC(=O)[C@H](CC(C)C)NC(=O)[C@H](Cc1c[nH]c2ccccc12)NC(=O)[C@H](C)NC(=O)[C@@H](NC(=O)[C@H](Cc1ccccc1)NC(=O)[C@H](CC(=O)O)NC(=O)[C@H](CCCNC(=N)N)NC(=O)[C@H](C)NC(=O)[C@H](C)NC(=O)[C@H](CC(C)C)NC(=O)[C@H](CCCCNC(=O)CC[C@H](NC(=O)CCCCCCCCCCCCCCCCC(=O)O)C(=O)O)NC(=O)[C@H](CC(=O)O)NC(=O)[C@H](CC(C)C)NC(=O)[C@@H](NC(=O)[C@@H](NC(=O)[C@H](C)NC(=O)[C@H](CC(C)C)NC(=O)[C@H](CCC(=O)O)NC(=O)[C@H](CO)NC(=O)[C@@H](NC(=O)[C@H](Cc1ccccc1)NC(=O)[C@@H](NC(=O)CNC(=O)[C@H](CCC(=O)O)NC(=O)C(C)(C)NC(=O)[C@@H](N)Cc1c[nH]cn1)[C@@H](C)O)[C@@H](C)O)[C@@H](C)O)[C@@H](C)CC)[C@@H](C)CC)C(=O)N[C@@H](C)C(=O)N[C@@H](Cc1c[nH]cn1)C(=O)N[C@@H](CCCCN)C(=O)N[C@H](C(=O)N[C@H](C(=O)N[C@@H](CC(=O)O)C(=O)O)[C@@H](C)O)[C@@H](C)CC) [Compound 15]	0.16	0.25
HXEGTFTSELATILDXEAARLFIAWLIEHKITD (HELM PEPTIDE1{H.[Aib].E.G.T.F.T.S.E.L.A.T.I.L.D.K.E.A.A.R.L.F.I.A.W.L.I.E.H.K.I.T.D}|PEPTIDE2{[O=C(O)CCCCCCCCCCCCCCCCC(=O)[*:2]].[gGlu]}$PEPTIDE1,PEPTIDE2,16:R3-2:R2$$$V2.0; SMILES CC[C@H](C)[C@H](NC(=O)[C@H](Cc1ccccc1)NC(=O)[C@H](CC(C)C)NC(=O)[C@H](CCCNC(=N)N)NC(=O)[C@H](C)NC(=O)[C@H](C)NC(=O)[C@H](CCC(=O)O)NC(=O)[C@H](CCCCNC(=O)CC[C@H](NC(=O)CCCCCCCCCCCCCCCCC(=O)O)C(=O)O)NC(=O)[C@H](CC(=O)O)NC(=O)[C@H](CC(C)C)NC(=O)[C@@H](NC(=O)[C@@H](NC(=O)[C@H](C)NC(=O)[C@H](CC(C)C)NC(=O)[C@H](CCC(=O)O)NC(=O)[C@H](CO)NC(=O)[C@@H](NC(=O)[C@H](Cc1ccccc1)NC(=O)[C@@H](NC(=O)CNC(=O)[C@H](CCC(=O)O)NC(=O)C(C)(C)NC(=O)[C@@H](N)Cc1c[nH]cn1)[C@@H](C)O)[C@@H](C)O)[C@@H](C)O)[C@@H](C)CC)C(=O)N[C@@H](C)C(=O)N[C@@H](Cc1c[nH]c2ccccc12)C(=O)N[C@@H](CC(C)C)C(=O)N[C@H](C(=O)N[C@@H](CCC(=O)O)C(=O)N[C@@H](Cc1c[nH]cn1)C(=O)N[C@@H](CCCCN)C(=O)N[C@H](C(=O)N[C@H](C(=O)N[C@@H](CC(=O)O)C(=O)O)[C@@H](C)O)[C@@H](C)CC)[C@@H](C)CC) [Compound 16]	0.68	0.073
HXEGTFSSELATILDXQAARDFIAWLIQHKITD (HELM PEPTIDE1{H.[Aib].E.G.T.F.S.S.E.L.A.T.I.L.D.K.Q.A.A.R.D.F.I.A.W.L.I.Q.H.K.I.T.D}|PEPTIDE2{[O=C(O)CCCCCCCCCCCCCCCCC(=O)[*:2]].[gGlu]}$PEPTIDE1,PEPTIDE2,16:R3-2:R2$$$V2.0; SMILES CC[C@H](C)[C@H](NC(=O)[C@H](Cc1ccccc1)NC(=O)[C@H](CC(=O)O)NC(=O)[C@H](CCCNC(=N)N)NC(=O)[C@H](C)NC(=O)[C@H](C)NC(=O)[C@H](CCC(N)=O)NC(=O)[C@H](CCCCNC(=O)CC[C@H](NC(=O)CCCCCCCCCCCCCCCCC(=O)O)C(=O)O)NC(=O)[C@H](CC(=O)O)NC(=O)[C@H](CC(C)C)NC(=O)[C@@H](NC(=O)[C@@H](NC(=O)[C@H](C)NC(=O)[C@H](CC(C)C)NC(=O)[C@H](CCC(=O)O)NC(=O)[C@H](CO)NC(=O)[C@H](CO)NC(=O)[C@H](Cc1ccccc1)NC(=O)[C@@H](NC(=O)CNC(=O)[C@H](CCC(=O)O)NC(=O)C(C)(C)NC(=O)[C@@H](N)Cc1c[nH]cn1)[C@@H](C)O)[C@@H](C)O)[C@@H](C)CC)C(=O)N[C@@H](C)C(=O)N[C@@H](Cc1c[nH]c2ccccc12)C(=O)N[C@@H](CC(C)C)C(=O)N[C@H](C(=O)N[C@@H](CCC(N)=O)C(=O)N[C@@H](Cc1c[nH]cn1)C(=O)N[C@@H](CCCCN)C(=O)N[C@H](C(=O)N[C@H](C(=O)N[C@@H](CC(=O)O)C(=O)O)[C@@H](C)O)[C@@H](C)CC)[C@@H](C)CC) [Compound 17]	0.33	0.9
HXEGSFTSELATILDXQAARDFIAWLIQHKITD (HELM PEPTIDE1{H.[Aib].E.G.S.F.T.S.E.L.A.T.I.L.D.K.Q.A.A.R.D.F.I.A.W.L.I.Q.H.K.I.T.D}|PEPTIDE2{[O=C(O)CCCCCCCCCCCCCCCCC(=O)[*:2]].[gGlu]}$PEPTIDE1,PEPTIDE2,16:R3-2:R2$$$V2.0; SMILES CC[C@H](C)[C@H](NC(=O)[C@H](Cc1ccccc1)NC(=O)[C@H](CC(=O)O)NC(=O)[C@H](CCCNC(=N)N)NC(=O)[C@H](C)NC(=O)[C@H](C)NC(=O)[C@H](CCC(N)=O)NC(=O)[C@H](CCCCNC(=O)CC[C@H](NC(=O)CCCCCCCCCCCCCCCCC(=O)O)C(=O)O)NC(=O)[C@H](CC(=O)O)NC(=O)[C@H](CC(C)C)NC(=O)[C@@H](NC(=O)[C@@H](NC(=O)[C@H](C)NC(=O)[C@H](CC(C)C)NC(=O)[C@H](CCC(=O)O)NC(=O)[C@H](CO)NC(=O)[C@@H](NC(=O)[C@H](Cc1ccccc1)NC(=O)[C@H](CO)NC(=O)CNC(=O)[C@H](CCC(=O)O)NC(=O)C(C)(C)NC(=O)[C@@H](N)Cc1c[nH]cn1)[C@@H](C)O)[C@@H](C)O)[C@@H](C)CC)C(=O)N[C@@H](C)C(=O)N[C@@H](Cc1c[nH]c2ccccc12)C(=O)N[C@@H](CC(C)C)C(=O)N[C@H](C(=O)N[C@@H](CCC(N)=O)C(=O)N[C@@H](Cc1c[nH]cn1)C(=O)N[C@@H](CCCCN)C(=O)N[C@H](C(=O)N[C@H](C(=O)N[C@@H](CC(=O)O)C(=O)O)[C@@H](C)O)[C@@H](C)CC)[C@@H](C)CC) [Compound 18]	0.21	0.19
HXEGSFTSELATILDXLAARDFIAWLIAHKITD (HELM PEPTIDE1{H.[Aib].E.G.S.F.T.S.E.L.A.T.I.L.D.K.L.A.A.R.D.F.I.A.W.L.I.A.H.K.I.T.D}|PEPTIDE2{[O=C(O)CCCCCCCCCCCCCCCCC(=O)[*:2]].[gGlu]}$PEPTIDE1,PEPTIDE2,16:R3-2:R2$$$V2.0; SMILES CC[C@H](C)[C@H](NC(=O)[C@H](CC(C)C)NC(=O)[C@H](Cc1c[nH]c2ccccc12)NC(=O)[C@H](C)NC(=O)[C@@H](NC(=O)[C@H](Cc1ccccc1)NC(=O)[C@H](CC(=O)O)NC(=O)[C@H](CCCNC(=N)N)NC(=O)[C@H](C)NC(=O)[C@H](C)NC(=O)[C@H](CC(C)C)NC(=O)[C@H](CCCCNC(=O)CC[C@H](NC(=O)CCCCCCCCCCCCCCCCC(=O)O)C(=O)O)NC(=O)[C@H](CC(=O)O)NC(=O)[C@H](CC(C)C)NC(=O)[C@@H](NC(=O)[C@@H](NC(=O)[C@H](C)NC(=O)[C@H](CC(C)C)NC(=O)[C@H](CCC(=O)O)NC(=O)[C@H](CO)NC(=O)[C@@H](NC(=O)[C@H](Cc1ccccc1)NC(=O)[C@H](CO)NC(=O)CNC(=O)[C@H](CCC(=O)O)NC(=O)C(C)(C)NC(=O)[C@@H](N)Cc1c[nH]cn1)[C@@H](C)O)[C@@H](C)O)[C@@H](C)CC)[C@@H](C)CC)C(=O)N[C@@H](C)C(=O)N[C@@H](Cc1c[nH]cn1)C(=O)N[C@@H](CCCCN)C(=O)N[C@H](C(=O)N[C@H](C(=O)N[C@@H](CC(=O)O)C(=O)O)[C@@H](C)O)[C@@H](C)CC) [Compound 14]	0.086	0.57
